Consider two molecules from patent US7083932 (EUROSCREEN S A, dated 2006).

In the experiment the target is orphan receptor ORL1 (Opioid Receptor-Like 1) stably expressed in recombinant CHO(ORL1+) cells. As to the kind of experiment: cell-based or functional assay.

FGGFTGARKSARKLANQ: the “inhibition of forskolin-induced accumulation of cAMP in recombinant CHO(ORL1+) cells, IC50” value was determined as 900 pM. For the molecule YGGFTGARKSARKLANQ [1Tyr analogue of the synthetic heptadecapeptide], the “inhibition of forskolin-induced accumulation of cAMP in CHO cells expressing the receptor, IC50” value worked out at 1 nM.
